{"source": "patent US20110262396A1", "about": "“COMBINATION TREATMENTS COMPRISING PROTEASE BINDING PROTEINS FOR INFLAMMATORY DISORDERS” (DYAX CORP., priority 2008, published 2011)", "key": {"[1]": {"tested_on": "collagen-induced arthritis (CIA)", "experiment": "CIA mouse model, DX-2712 as monotherapy or combined with DMARDs or BRMs (Example 7)", "type": "in vivo, mouse (DBA/1)", "settings": "end of study, 31 days of therapy; number in parentheses = dose in mg/kg (Table 12); DX-2712 20 mg/kg IP Q2D"}, "[2]": {"tested_on": "MMP-14 expressed in synovial cells", "experiment": "Collagen film degradation by human synovial cells (Example 8)", "type": "cell-based", "settings": "human fibroblasts on bovine type I collagen film, 4 days, data not shown; for collagen film degradation: 37° C.", "procedure": "Human rheumatoid synovial fibroblasts spontaneously express high levels of MMP-14 (Miller et al, 2009 Arthritis Rheum. 2009 March; 60(3):686-97). When they are cultured on collagen film, MMP-14 expressed in synovial cells effectively degrades the collagen film. Human fibroblasts were cultured on bovine type I collagen film at 37° C. for 4 days in the presence or absence of a broad spectrum MMP-inhibitor GM6001, DX-2400 or DX-2410. Cells were then removed from collagen surface by trypsin/EDTA to reveal collagen film. Films were then fixed with 3% PFA for 30 min. and stained with Coomassie blue."}, "LNCaPs (prostate cancer)": {"tested_on": "LNCaPs (prostate cancer)", "experiment": "DHT-stimulated invasion of LNCaPs through Matrigel", "type": "cell-based", "settings": "DX-1000 1 nM", "procedure": "(§1) Firstly, DX-1000 (1 nM) inhibited both DHT-stimulated invasion of LNCaPs (prostate cancer) and HT-1080 (fibrosarcoma) through Matrigel, processes known to be dependent on the plasminogen/plasmin system."}, "HT-1080 (fibrosarcoma)": {"tested_on": "HT-1080 (fibrosarcoma)", "experiment": "Invasion of HT-1080 through Matrigel", "type": "cell-based", "settings": "DX-1000 1 nM", "procedure": "as §1"}, "gelatinases": {"tested_on": "gelatinases", "experiment": "Expression and activation of gelatinases", "type": "cell-based"}, "human endothelial cells": {"tested_on": "human endothelial cells", "experiment": "Tube formation of human endothelial cells", "type": "cell-based", "settings": "1-10 nM; plated on Matrigel or collagen type I"}, "mouse endothelial cells": {"tested_on": "mouse endothelial cells", "experiment": "Tube formation of mouse endothelial cells", "type": "cell-based", "settings": "1-10 nM; plated on Matrigel or collagen type I"}, "[3]": {"experiment": "Global coagulation screening tests"}, "[4]": {"experiment": "Platelet function screening test"}, "[5]": {"tested_on": "collagen-induced arthritis (CIA)", "experiment": "DX-2400 and DX-2410 in CIA mouse model (Example 10)", "type": "in vivo, mouse (DBA)", "settings": "20 mg/kg i.p. 3x/week from day 21 after collagen injection; for development of arthritis as assessed by histological analysis of the joints: FIG. 9(A)", "procedure": "200 μg of chicken type II collagen was injected subcutaneously with complete Freunds adjuvant in DBA mice (male, 3-4 months old). After 21 days, test compounds were administered i.p. at 20 mg/kg, 3×/week. The first mouse which developed clinical symptom of arthritis was detected 26 days after collagen injection. […] FIG. 9(B) provides a description of the histology scoring system used."}, "human MMP-9": {"target": "human MMP-9 (Homo sapiens, UniProt P14780)", "sequence (P14780 94-707)": "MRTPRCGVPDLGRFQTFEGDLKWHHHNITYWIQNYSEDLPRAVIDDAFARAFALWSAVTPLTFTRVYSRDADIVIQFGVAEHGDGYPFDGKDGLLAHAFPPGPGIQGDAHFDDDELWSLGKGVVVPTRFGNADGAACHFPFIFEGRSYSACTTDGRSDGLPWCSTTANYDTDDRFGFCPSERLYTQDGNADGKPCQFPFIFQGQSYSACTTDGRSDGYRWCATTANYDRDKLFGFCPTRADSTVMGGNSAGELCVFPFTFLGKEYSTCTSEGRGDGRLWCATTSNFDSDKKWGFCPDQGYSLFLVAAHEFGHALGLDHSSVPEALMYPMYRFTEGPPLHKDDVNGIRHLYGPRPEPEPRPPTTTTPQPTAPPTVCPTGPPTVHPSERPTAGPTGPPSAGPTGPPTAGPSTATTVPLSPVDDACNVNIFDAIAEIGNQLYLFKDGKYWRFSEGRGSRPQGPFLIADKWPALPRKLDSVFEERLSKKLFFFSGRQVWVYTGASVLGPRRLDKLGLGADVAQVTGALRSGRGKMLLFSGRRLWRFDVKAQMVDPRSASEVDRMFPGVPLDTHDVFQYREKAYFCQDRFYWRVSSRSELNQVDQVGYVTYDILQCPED", "experiment": "Inhibition of human MMP-9", "type": "biochemical"}, "mouse MMP-9": {"target": "mouse MMP-9 (Mus musculus, UniProt P41245)", "sequence (P41245 108-730)": "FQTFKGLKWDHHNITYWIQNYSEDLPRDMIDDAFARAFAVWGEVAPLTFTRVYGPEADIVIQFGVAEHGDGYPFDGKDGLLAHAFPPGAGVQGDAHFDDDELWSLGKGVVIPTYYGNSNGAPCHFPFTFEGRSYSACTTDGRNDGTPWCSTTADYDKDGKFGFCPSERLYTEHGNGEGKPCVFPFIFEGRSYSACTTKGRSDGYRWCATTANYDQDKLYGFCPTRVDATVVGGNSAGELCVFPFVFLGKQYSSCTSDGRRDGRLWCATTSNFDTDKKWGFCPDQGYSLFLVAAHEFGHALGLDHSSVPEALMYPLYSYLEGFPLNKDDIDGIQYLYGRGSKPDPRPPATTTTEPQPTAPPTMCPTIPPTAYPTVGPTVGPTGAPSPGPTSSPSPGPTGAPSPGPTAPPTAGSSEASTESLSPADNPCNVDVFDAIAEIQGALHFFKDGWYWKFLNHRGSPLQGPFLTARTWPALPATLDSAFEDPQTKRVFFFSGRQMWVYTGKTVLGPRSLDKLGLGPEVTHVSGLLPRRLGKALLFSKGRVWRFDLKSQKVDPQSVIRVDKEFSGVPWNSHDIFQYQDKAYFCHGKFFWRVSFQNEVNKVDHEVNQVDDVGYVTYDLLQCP", "experiment": "Inhibition of mouse MMP-9", "type": "biochemical"}, "human plasmin": {"target": "T1, human plasmin (human, UniProt P00747 97-810, limits assumed)", "T1 construct": "In the cell invasion assays the plasmin is that of the cell cultures", "T1 sequence (P00747 97-810 limits assumed)": "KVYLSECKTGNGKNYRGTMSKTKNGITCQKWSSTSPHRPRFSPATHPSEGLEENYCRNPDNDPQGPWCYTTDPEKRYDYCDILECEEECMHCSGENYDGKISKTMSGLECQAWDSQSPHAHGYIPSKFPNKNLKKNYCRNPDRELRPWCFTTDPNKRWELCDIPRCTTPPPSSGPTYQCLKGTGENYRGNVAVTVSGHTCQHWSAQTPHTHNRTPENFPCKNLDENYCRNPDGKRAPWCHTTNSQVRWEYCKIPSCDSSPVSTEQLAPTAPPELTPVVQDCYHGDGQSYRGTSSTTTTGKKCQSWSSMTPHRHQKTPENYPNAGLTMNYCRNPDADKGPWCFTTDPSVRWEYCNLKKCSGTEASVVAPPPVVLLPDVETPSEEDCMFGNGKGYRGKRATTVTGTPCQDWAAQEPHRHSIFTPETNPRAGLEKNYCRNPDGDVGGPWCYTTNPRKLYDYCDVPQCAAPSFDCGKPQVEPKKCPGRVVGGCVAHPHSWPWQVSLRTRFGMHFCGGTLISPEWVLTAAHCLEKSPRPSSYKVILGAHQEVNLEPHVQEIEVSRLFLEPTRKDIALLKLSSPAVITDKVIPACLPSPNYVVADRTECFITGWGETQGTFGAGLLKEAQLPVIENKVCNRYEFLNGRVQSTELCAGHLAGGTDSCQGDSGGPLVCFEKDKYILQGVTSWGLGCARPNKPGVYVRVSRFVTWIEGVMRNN", "experiment": "inhibition of human plasmin; method not described"}, "[6]": {"tested_on": "collagen-induced arthritis (CIA)", "experiment": "MMP-12 inhibition in mouse collagen-induced arthritis (Example 1)", "type": "in vivo", "settings": "20 mg/kg IP Q2D", "from_the_text": "The study design was as depicted in Table 6 below. [table]"}}}
{"molecule": "Etanercept [Enbrel (30)]", "values": [{"measurement": "% change in AI Score", "setting": "[1]", "result": "−70.37", "unit": "%"}]}
{"molecule": "CNC(=O)[C@H](Cc1c[nH]c2ccccc12)NC(=O)[C@@H](CC(=O)NO)CC(C)C", "note": "[GM6001, reference compound]", "values": [{"measurement": "collagen film degradation", "setting": "[2]", "result": "completely abolished"}]}
{"molecule": "DX-1000: Kunitz domain polypeptide that inhibits human plasmin; SEQ ID NO:100 or SEQ ID NO:200 (EAMHSFCAFKAETGPCRARFDRWFFNIFTRQCEEFIYGGCEGNQNRFESLEECKKMCTRD)", "values": [{"measurement": "DHT-stimulated invasion of LNCaPs through Matrigel", "setting": "LNCaPs (prostate cancer)", "result": "inhibited"}, {"measurement": "invasion of HT-1080 through Matrigel", "setting": "HT-1080 (fibrosarcoma)", "result": "inhibited"}, {"measurement": "expression and activation of gelatinases", "setting": "gelatinases", "result": "down-regulated efficiently"}, {"measurement": "tube formation of human endothelial cells", "setting": "human endothelial cells", "result": "efficiently blocked"}, {"measurement": "tube formation of mouse endothelial cells", "setting": "mouse endothelial cells", "result": "efficiently blocked"}, {"measurement": "effects on global coagulation screening tests", "setting": "[3]", "result": "no clinically significant effects"}, {"measurement": "effects on a platelet function screening test", "setting": "[4]", "result": "no clinically significant effects"}]}
{"molecule": "CN(Cc1cnc2nc(N)nc(N)c2n1)c1ccc(C(=O)N[C@@H](CCC(=O)O)C(=O)O)cc1", "note": "[MTX (3), methotrexate]", "values": [{"measurement": "% change in AI Score", "setting": "[1]", "result": "−80.74", "unit": "%"}]}
{"molecule": "DX-2410: exemplary MMP-14 antibody; VH SEQ ID NO:24, VL SEQ ID NO:25 (antibody, V domains shown) VH: EVQLLESGGGLVQPGGSLRLSCAASGFTFSVYGMVWVRQAPGKGLEWVSVISSSGGSTWYADSVKGRFTISRDNSKNTLYLQMNSLRAEDTAVYYCARPFSRRYGVFDYWGQGTLVTVSS VL: DIQMTQSPSSLSASVGDRVTITCRASQGIRNFLAWYQQKPGKVPKLLIYGASALQSGVPSRFSGSGSGTDFTLTISSLQPEDVATYYCQKYNGVPLTFGGGTKVEIK", "values": [{"measurement": "inhibition of collagen film degradation at 500 nM", "setting": "[2]", "result": "slightly lower than DX-2400, showing degraded area"}, {"measurement": "collagen film degradation", "setting": "[2]", "result": "inhibited collagen degradation in a dose-dependent manner"}, {"measurement": "redness and swelling of paws", "setting": "[5]", "result": "did not significantly improve"}, {"measurement": "development of arthritis as assessed by histological analysis of the joints", "setting": "[5]", "result": "significantly attenuated"}]}
{"molecule": "539A-M0240-B03: selective inhibitor of MMP-9; parental isolate (sFab; IgG) (antibody, V domains shown) VL: QYELTQPRSVSGSPGQSVTISCTGTSSDVGGYNYVSWYQQHPGKAPKLMIYDVSKRPSGVPDRFSGSKSGNTASLTISGLQAEDEADYYCCSYAGSYTLVFGGGTKLTVL VH: EVQLLESGGGLVQPGGSLRLSCAASGFTFSTYQMVWVRQAPGKGLEWVSVIYPSGGPTVYADSVKGRFTISRDNSKNTLYLQMNSLRAEDTAVYYCARGEDYYDSSGPGAFDIWGQGTMVTVSS", "values": [{"measurement": "inhibition of human MMP-9 activity", "setting": "human MMP-9", "result": "can decrease or inhibit the activity"}, {"measurement": "inhibition of mouse MMP-9 activity", "setting": "mouse MMP-9", "result": "can decrease or inhibit the activity"}]}
{"molecule": "DX-1000 (designed binder) EAMHSFCAFKAETGPCRARFDRWFFNIFTRQCEEFIYGGCEGNQNRFESLEECKKMCTRD", "values": [{"measurement": "Ki", "setting": "human plasmin", "result": 88, "unit": "pM"}]}
{"molecule": "DX-2712: Dyax inhibitor of MMP-12; specific MMP-12 antibody inhibitor; VL SEQ ID NO:118, VH SEQ ID NO:120 (antibody, V domains shown) VH: EVQLLESGGGLVQPGGSLRLSCAASGFTFSWYWMHWVRQAPGKGLEWVSGISPSGGMTMYADSVKGRFTISRDNSKNTLYLQMNSLRAEDTAVYYCARDIVGPYSAGLFDYWGRGTLVTVSS VL: DIQMTQSPSSLSASVGDRVTITCRASQSIYTYLNWYQQKPGKAPKLLIYAASSLQSGVPSRFSGSGSGTDFTLTISSLQPEDFATYYCQQAGIFGQGTKLEIK", "values": [{"measurement": "overall inhibition of the arthritic histological indices", "setting": "[6]; compared to untreated mice, p<0.05, FIG. 3", "result": 29, "unit": "%"}, {"measurement": "disease development (arthritic score)", "setting": "[6]; days 36-46, FIG. 2", "result": "arrested"}, {"measurement": "arthritic score", "setting": "[6]; last day of the study, FIG. 2", "result": "sharp increase in arthritic score"}, {"measurement": "disease development (arthritic score)", "setting": "[6]; through day 35, FIG. 2", "result": "delayed disease development"}, {"measurement": "% change in AI Score", "setting": "[1]", "result": "−34.07", "unit": "%"}]}
{"molecule": "DX-2400: exemplary MMP-14 antibody; VH SEQ ID NO:59, VL SEQ ID NO:23 (antibody, V domains shown) VH: EVQLLESGGGLVQPGGSLRLSCAASGFTFSLYSMNWVRQAPGKGLEWVSSIYSSGGSTLYADSVKGRFTISRDNSKNTLYLQMNSLRAEDTAVYYCARGRAFDIWGQGTMVTVSS VL: DIQMTQSPSSLSASVGDRVTITCRASQSVGTYLNWYQQKPGKAPKLLIYATSNLRSGVPSRFSGSGSGTDFTLTISSLQPEDFATYYCQQSYSIPRFTFGPGTKVDIK", "values": [{"measurement": "inhibition of collagen film degradation at 500 nM", "setting": "[2]", "result": "almost complete inhibition"}, {"measurement": "collagen film degradation", "setting": "[2]", "result": "inhibited collagen degradation in a dose-dependent manner"}, {"measurement": "redness and swelling of paws", "setting": "[5]", "result": "did not significantly improve"}, {"measurement": "development of arthritis as assessed by histological analysis of the joints", "setting": "[5]", "result": "significantly attenuated"}]}
